2 molecules from publication PMC8851480 (Proceedings of the National Academy of Sciences of the …, 2022) can be followed below.

Assay [1] has as its target N-terminal FLAG-tagged EBP50 (ERM-binding phosphoprotein 50) (human) (UniProt O14745). The assay is described as follows: RNA immunoprecipitation.
In assay [2] the target is ezrin, endogenous in HEK293T cells (human (endogenous in HEK293T), UniProt P15311 1-586). The assay is described as follows: RNA immunoprecipitation.
Sequence of ezrin, endogenous in HEK293T cells (P15311 whole entry): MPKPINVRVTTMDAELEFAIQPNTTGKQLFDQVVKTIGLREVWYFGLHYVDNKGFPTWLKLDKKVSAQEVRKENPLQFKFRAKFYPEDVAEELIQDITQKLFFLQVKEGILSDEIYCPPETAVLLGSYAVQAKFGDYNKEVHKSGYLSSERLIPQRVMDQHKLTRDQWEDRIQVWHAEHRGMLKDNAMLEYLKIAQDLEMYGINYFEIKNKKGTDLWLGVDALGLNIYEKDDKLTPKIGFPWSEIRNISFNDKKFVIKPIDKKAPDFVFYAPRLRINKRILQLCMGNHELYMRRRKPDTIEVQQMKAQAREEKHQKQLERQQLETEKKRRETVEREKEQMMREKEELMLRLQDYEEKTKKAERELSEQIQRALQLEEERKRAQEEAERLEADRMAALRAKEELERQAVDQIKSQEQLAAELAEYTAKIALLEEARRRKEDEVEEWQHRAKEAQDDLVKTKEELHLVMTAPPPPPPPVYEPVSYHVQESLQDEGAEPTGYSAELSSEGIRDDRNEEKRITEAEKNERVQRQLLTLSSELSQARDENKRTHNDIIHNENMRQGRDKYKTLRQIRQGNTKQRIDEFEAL

In assay [1], “ezrin, endogenous in HEK293T cells (from UniProt P15311 1-586) (natural protein)” came in with a fold enrichment of EZR mRNA over control IgG (RIP-qRT-PCR) of 100 fold. As to RRRRRRRRRKERAHQKRSSKRAPQMDWSKKNELFSNL [Arg9-EBD peptide (28-amino-acid C terminus of the EBP50 EBD with an upstream 9-arginine sequence)], the “fold reduction of the EBP50-EZR mRNA RIP signal against control peptide” value in assay [2] was about 10 fold.
